Source: patent US20160115500A1 (University of California, published 2016)
Numbering of substitutions follows the chain as printed.

T1: GST-HAB1 (UniProt Q9CAJ0 23-511)
T1 sequence (looked up): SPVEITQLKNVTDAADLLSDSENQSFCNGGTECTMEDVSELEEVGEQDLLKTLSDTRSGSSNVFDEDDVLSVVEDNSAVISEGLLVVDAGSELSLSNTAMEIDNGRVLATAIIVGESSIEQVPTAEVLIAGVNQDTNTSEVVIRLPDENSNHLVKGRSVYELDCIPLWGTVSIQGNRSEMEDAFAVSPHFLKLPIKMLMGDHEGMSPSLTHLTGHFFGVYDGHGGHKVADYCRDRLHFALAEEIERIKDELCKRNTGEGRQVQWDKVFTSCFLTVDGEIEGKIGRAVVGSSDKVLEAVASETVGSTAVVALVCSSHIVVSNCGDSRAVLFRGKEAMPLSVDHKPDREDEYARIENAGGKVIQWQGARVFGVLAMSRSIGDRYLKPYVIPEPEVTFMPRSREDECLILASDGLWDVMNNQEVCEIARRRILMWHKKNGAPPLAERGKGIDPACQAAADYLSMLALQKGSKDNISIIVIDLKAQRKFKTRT

T2: GST-ABI1 (UniProt P49597 1-434)
T2 sequence (looked up): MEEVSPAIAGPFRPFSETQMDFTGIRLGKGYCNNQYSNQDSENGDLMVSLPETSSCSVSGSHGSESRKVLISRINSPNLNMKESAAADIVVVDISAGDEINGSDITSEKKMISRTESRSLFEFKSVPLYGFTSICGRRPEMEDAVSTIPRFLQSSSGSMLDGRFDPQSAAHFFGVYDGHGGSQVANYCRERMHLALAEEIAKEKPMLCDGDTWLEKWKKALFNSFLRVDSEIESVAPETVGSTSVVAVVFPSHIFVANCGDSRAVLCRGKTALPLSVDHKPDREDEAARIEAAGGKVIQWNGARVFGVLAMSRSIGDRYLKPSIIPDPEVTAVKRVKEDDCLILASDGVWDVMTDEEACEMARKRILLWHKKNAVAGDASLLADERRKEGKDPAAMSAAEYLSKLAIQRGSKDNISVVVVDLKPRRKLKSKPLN

T3: GST-ABI2 (UniProt O04719 1-423)
T3 sequence (looked up): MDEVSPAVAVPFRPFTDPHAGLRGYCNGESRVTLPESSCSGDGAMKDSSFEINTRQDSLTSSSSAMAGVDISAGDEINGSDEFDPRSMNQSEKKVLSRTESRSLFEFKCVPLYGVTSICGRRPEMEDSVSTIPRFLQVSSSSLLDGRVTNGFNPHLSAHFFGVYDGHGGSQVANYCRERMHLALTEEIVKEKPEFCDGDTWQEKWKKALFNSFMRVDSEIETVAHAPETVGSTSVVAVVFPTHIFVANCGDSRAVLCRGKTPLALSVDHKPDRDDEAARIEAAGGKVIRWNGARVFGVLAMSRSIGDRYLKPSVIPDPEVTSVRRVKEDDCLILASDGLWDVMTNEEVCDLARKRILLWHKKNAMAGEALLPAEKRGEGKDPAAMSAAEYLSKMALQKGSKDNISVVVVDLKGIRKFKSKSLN

T4: 6×-His tagged PYR1^K59R,F108A,S122G
T4 chain: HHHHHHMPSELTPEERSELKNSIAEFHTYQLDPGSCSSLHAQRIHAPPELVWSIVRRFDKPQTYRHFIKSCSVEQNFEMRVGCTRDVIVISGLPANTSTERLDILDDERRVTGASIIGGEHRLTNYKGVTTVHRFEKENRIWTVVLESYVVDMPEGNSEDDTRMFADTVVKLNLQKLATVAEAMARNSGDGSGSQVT

T5: 6×-His-PYR1^MANDI
T5 chain: T4 chain with Y64H, V87I, F165L

B1: 6×-His-PYR1^MANDI (receptor)
chain: T4 chain with Y64H, V87I, F165L
B2: GST-ABI2 (protein)
chain: T3 sequence (looked up)
B3: GST-HAB1 (protein)
chain: T1 sequence (looked up)

Tests used:
[1] = target: GAL4 activation domain fusion (ACT) to HAB1 (UniProt Q9CAJ0); experiment: yeast two-hybrid, X-gal; lowest mandipropamid concentration giving signal
[2] = target: T1, GST-HAB1; experiment: cell-based or functional assay
[3] = target: T2, GST-ABI1; experiment: cell-based or functional assay
[4] = target: T3, GST-ABI2; experiment: cell-based or functional assay
[5] = target: T4, 6×-His tagged PYR1^K59R,F108A,S122G
[6] = target: T5, 6×-His-PYR1^MANDI

Molecule	PP2C activity (pNPP substrate), 600 nM PP2C and 1200 nM receptor [5]	PP2C activity (pNPP substrate), 600 nM PP2C and 1200 nM receptor [6]	also measured
PYR1^Y58H,K59R,V81I,F108A,F159L (from UniProt P04386 1-147) (receptor)			Threshold [1]: 0.01 µM
B1			IC50 of mandipropamid mediated inhibition of PP2C activity (4-methylumbelliferyl-phosphate substrate) [2]: 32.2 nM; IC50 of mandipropamid mediated inhibition of PP2C activity (4-methylumbelliferyl-phosphate substrate) [3]: 26.8 nM; IC50 of mandipropamid mediated inhibition of PP2C activity (4-methylumbelliferyl-phosphate substrate) [4]: 75.5 nM
B2	saturable inhibition of HAB1 and ABI2 PP2C activity by mandipropamid in the presence of PYR1^MANDI (FIG. 1A, bottom lines) and PYR1^K59R,F108A,S122G	saturable inhibition of HAB1 and ABI2 PP2C activity by mandipropamid in the presence of PYR1^MANDI	
B3	saturable inhibition of HAB1 and ABI2 PP2C activity by mandipropamid in the presence of PYR1^MANDI (FIG. 1A, bottom lines) and PYR1^K59R,F108A,S122G	saturable inhibition of HAB1 and ABI2 PP2C activity by mandipropamid in the presence of PYR1^MANDI	
